System: K4 kissing-loop RNA reporter
Test: apparent KD of K4 kissing-loop reporter; higher = weaker reporter binding
Conditions: Eterna round: R107
Protocol: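 RNA-MaP round R107: designed RNA switches with theophylline, tryptophan, arginine or FMN aptamers are transcribed on-chip within common flanks. They are titrated with a labelled K4 kissing-loop RNA reporter in RNA-MaP buffer (100 mM Tris pH 7.5, 80 mM KCl, 4 mM MgCl2), without ligand or with the indicated ligand. Median apparent KD per design.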

[1] = input ligand: theophylline 20 uM
[2] = input ligand: tryptophan 2.4 mM
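Also: bound reporter read as fluorescence of individual clusters on recovered sequencing chips by microscopy, with normalized cluster intensities fitted with a binding model.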

Row | Sequence | apparent KD of K4 kissing-loop reporter (input ligand: FMN 200 uM) [nM] | apparent KD of K4 kissing-loop reporter (input ligand: arginine 13.2 mM) [nM] | apparent KD of K4 kissing-loop reporter (input ligand: none) [nM] | apparent KD of K4 kissing-loop reporter [1] [nM] | apparent KD of K4 kissing-loop reporter [2] [nM]
1 | GCACUGAAGUGAUGUUUUUGUGCACGUUGAAAGGAUAUCUGCUUGUAGAGAAGGUUCUGUUUGUGCGGAGCGGGCGUUACCGGCA [theeternabot_exclusion_KL_FMN_A_32] | 307 | 269 | 310 | 285 | 308
2 | GCACUUCUCAGUGAUGUUGAGUAAUCGGAAGGAGCGCGUGAAAACGCAGGUAGGUCGCCGAUACAUGAAGUAUCUUCGUGUGUGC [Arginine A K4 25] | 306 | 235 | 295 | 279 | 216
3 | GCAGGACGAGGAGGAGGAUGAAUUACUGAAGGAGCGCAUAUUUUUGCAGGUAGGUCGCGGUAAAGAAGUAUAGUGAUGUUAUAUA [SSArgA.L] | 482 | 476 | 470 | 406 | 408
4 | GCAGUCAAUCGACCACGAAAGUGGAUGGAUACCAGCCCGAAACCGGGCCCUUGGCAGCCAGUGAUGUUGGAAGACUGCUUUAAAA [#SwitchBubble 14 #K4Late] | 371 | 372 | 548 | 216 | 660
5 | GCAGUGAUGUUGCAACCGCGUACGAUGCCUCGAGGACCGGUACGGCCGCCACUCGUCCUGGUUCAGGAGCUACAGACAUAGCUCA [theeternabot_sameState_KL_Trp_A_2] | 563 | 271 | 781 | 408 | 291
6 | GCAGUGAUGUUGCGCAGGUACAGUGGAGUGCGAGGACCGGUACGGCCGCCACUCGUACAGAACUAGCUAAUGUAUGGAUAGGUGA [#11 K4 Tryptophan A Same State] | 354 | 329 | 368 | 470 | 312
7 | GCAGUGAUGUUGCGCGGGUACAGUGGAGUGCGAGGACCGGUACGGCCGCCACUCGUACAGAACUGGCUAAUAUAUGGAUAGGUGA [VII] | 271 | 169 | 305 | 169 | 210
8 | GCAUGACGGUAAGGAUAUAGAUAAUCCUUAUAUACGUCGAGUGAUGUUCGAUGUGCCAAGGCACAUCUAGAAGGUACUGUUAGGU [Same State FMN B GF 18] | 772 | 760 | 1020 | 725 | 873
9 | GCCGUACGCAUGGAUACCAGACAACCAUUCUAAAUUUUGUGUCCGGUAGUGAUGUUACCUGUCCCUUGGCAGCCAUGCGUACGGC | 306 | 261 | 319 | 317 | 338
10 | GCCGUACGCAUGGAUACCAGAUCUAGACGCUUAGUGAUGUUAAGUAAUCUGGUUAGACCGAUCCCUUGGCAGCCAUGCGUACGGC | 270 | 199 | 229 | 203 | 200
11 | GCCGUACGCAUGGAUACCAGAUGGCACUAUAAUCUACCAGAGUGAUGUUCUGGCCUGCCCAUCCCUUGGCAGCCAUGCGUACGGC | 293 | 199 | 287 | 171 | 206
12 | GCCGUACGCAUGGAUACCAGCAAGUAUAUAUGCUAGUGAUGUUAGCGCUAUGCGAUGCGGUGCCCUUGGCAGCCAUGCGUACGGC | 129 | 85.2 | 105 | 106 | 102
13 | GCCGUACGCAUGGAUACCAGCAAUUAUGCUCGUAUCCUAGUGAUGUUAGUGGCGAAUAUUUGCCCUUGGCAGCCAUGCGUACGGC | 1080 | 841 | 1160 | 691 | 936
14 | GCCGUAGAUGGAAGGAGCGUGGUGGACUCGUGAAGUGAUGUUUCAAGUCGUUAUGCCCAACCACAGGUAGGUCGCCAUCUACGGC | 277 | 204 | 270 | 231 | 251
15 | GCCGUAGAUGGAAGGAGCGUGGUUAAUGUAAGUGAUGUUUACGAGGUUAACAAUUGACCGCCACAGGUAGGUCGCCAUCUACGGC | 84.6 | 65.9 | 74 | 70.5 | 70.5
16 | GCCGUAGAUGGAAGGAGCGUGUCAAAGUGAUGUUUUGAUUAACUCCCUACGGGAUAGAUGACACAGGUAGGUCGCCAUCUACGGC | 65.2 | 79.3 | 86.9 | 115 | 65.3
17 | GCCGUAGAUUGAAGGAGCGAGUAGGCUCACUUGCGAAGUGAAUAGCAGAGUGAUGUUCUGUCUCAGGUAGGUCGCAAUCUACGGC | 701 | 172 | 388 | 436 | 397
18 | GCCGUAGAUUGAAGGAGCGCCUUCUUACCAAGAGUGAUGUUCUUUGGUACCAUGUUCAGCAGGCAGGUAGGUCGCAAUCUACGGC | 195 | 142 | 188 | 155 | 169
19 | GCCGUAGAUUGAAGGAGCGGCACCCACGGCUCUAACACCUAAGUGAUGUUUAGGUAGUGGUGCCAGGUAGGUCGCAAUCUACGGC | 144 | 153 | 124 | 133 | 131
20 | GCCGUAGAUUGAAGGAGCGGCAUUAACGAUGUUCUGGUAGUGAUGUUACCUCAGCAGACAUGCCAGGUAGGUCGCAAUCUACGGC | 72.5 | 74.6 | 93.6 | 76.6 | 77
21 | GCCUGGGCACGAAGGAGCGCCGUGACAGGUUACUGCCGUGGGCAGUGAUGUUGCUCAAUCUGGCAGGUAGGUCGCGUGCCCAGGC | 137 | 86 | 184 | 107 | 121
22 | GCGCGGCUCAGUGAUGUUGAGCCUCGGAAACGAGGACCGGUACGGCCGCCACUCGUCCGCGCAGCUGAGGCAAAAGCCUCGGCAA [Omei KL Tryp A SS B v1] | 284 | 276 | 319 | 334 | 261

Source: the supplement of paper PMC9170038
